Reference: patent US12649776B2, “Scaffold proteins and therapeutic nanoconjugates based on nidogen” (UNIVERSITAT AUTÒNOMA DE BARCELONA, priority 2019, dated 2026)

Key:
[1] = literature value; cited from earlier work
[2] = Volume size distribution of protein nanoparticles and nanoconjugates by Dynamic Light Scattering (DLS); format: physicochemical; settings: self-assembled material in storage (carbonate) buffer
Description: Volume size distribution of all protein nanoparticles and nanoconjugates were determined by Dynamic Light Scattering (DLS) at 633 nm in a Zetasizer Nano ZS (Malvern Instruments) in triplicate.
Volume size distribution of protein nanoparticles was determined in a Zetasizer Nano ZS (Malvern Instruments) by Dynamic Light Scattering (DLS) at 633 nm in triplicates.
The integrity of the recombinant proteins was checked by mass spectrometry (MALDI-TOF), TGX (Tris-Glycine eXtended) Stain-Free acrylamide gels electrophoresis (BioRad) and Western Blot analysis using anti-His monoclonal antibody (1:1000; Santa Cruz, ref. 57598). Protein concentration was determined by Bradford (Biorad) assay with an Albumin (Roche) standard curve. GFP fluorescence emission (510 nm) was determined on purified proteins with a Cary Eclipse fluorescence spectrophotometer (Agilent Technologies) using an excitation wavelength of 450 nm. The volume and size distribution of nanoparticles were measured by dynamic light scattering (DLS) at 633 nm through a Zetasizer Nano ZS (Malvern Instruments) using quartz cuvettes.

[3] = test system: CXCR4+ SW1417 cells; assay: Protein internalization of EPIX4 / T22 / biparatopic nanoparticles (flow cytometry); format: cell-based, human; settings: 1 μM
Description: (§1) Experiments were performed in CXCR4+ cervical and colorectal cell lines (HeLa and SW1417, respectively). HeLa cells were cultured in Eagle's Minimum Essential Medium (Gibco) and SW1417 in Dulbecco's Modified Eagle's Medium (Gibco). Both cell lines were supplemented with 10% fetal bovine serum (Gibco) and incubated in a humidified atmosphere at 37° C. and 5% (HeLa) or 10% (SW1417) of CO2.
(§2) For testing protein internalization, cells were seeded in 24-well plates (Nunc) (30000 cells wells^−1) for 24 h. Briefly, the medium was removed, and cells were washed with PBS. Then protein was incubated at 1 and 2 μM, diluted in OptiPro medium supplemented with L-Glutamine and incubated at different times, at suitable cell line conditions. Then, harsh trypsin digestion (1 mg ml^−1 for 15 min) (Gibco) was carried out to remove protein particles bound to the outer size of the cell membranes. Intracellular green fluorescence was analyzed by flow cytometry on an FACS-Calibur system (Becton Dickinson) using a 15 mW air-cooled argon ion laser at 488 nm excitation. Fluorescence emission was measured with a D detector (530/30 nm band pass filter), and manually corrected by the specific fluorescence of purified protein, to get data representative of the amount of internalized protein for comparative purposes. […]

[4] = test system: CXCR4+ HeLa cells; assay: Protein internalization of EPIX4 / T22 / biparatopic nanoparticles (flow cytometry, AMD3100 competition, confocal); format: cell-based, human; settings: 1 μM
Description: as §1, §2

## Human Collagen Type I: human collagen type I, literature comparator (Leikina et al)
[1]
  Tm: 40.3° C.^
  Tonset, 1: 38.2 °C

## T22-GFP-H6: Modular protein: T22 ligand, Green Fluorescent Protein scaffold, C-terminal poly-histidine [reference compound]
[2]
  Nanoparticle size (volume size distribution, DLS): ~11 nm
[3]
  Time course of cell uptake: high uptake at short times
[1]
  Tonset, 1: 75 °C
[4]
  Time course of cell uptake: high uptake at short times
